15 variants from the RNAGym collection of RNA variant scans (doi:10.1093/molbev/msab373) can be followed below.

The labels stand for the following.
B1: Azoarcus group I ribozyme (parent)
chain: GUGCCUUGCGCCGGGAAACCACGCAAGGGAUGGUGUCAAAUUCGGCGAAACCUAAGCGCCCGCCCGGGCGUAUGGCAACGCCGAGCCAAGCUUCGGCGCCUGCGCCGAUGAAGGUGUAGAGACUAGACGGCACCCACCUAAGGCAAACGCUAUGGUGAAGGCAUAGUCCAGGGAGUGGCGAAAGUCACACAAACCGG

In the series the parent is B1. As to the kind of experiment: reverse-splicing fitness (ratio to wild type); higher = more active; in vitro selection; Mg2+ level not given. The gist of the method: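 An in vitro group I ribozyme library with randomized positions was T7-transcribed and gel-purified. In triplicate, 10 pmol RNA in EPPS pH 7.5 was reacted with 50 pmoles of a 30-nt RNA substrate for 1 h at 37 °C across several added MgCl2 levels (1–48 mM), then stopped with EDTA. Products were reverse transcribed from a substrate-complementary primer, PCR-amplified and sequenced (HiSeq 4000). Fitness is a variant's read proportion after selection over that before, normalised to wild type.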
In the case of GUGCCUUGCGCCGGGAAACCACGCAAGGGAUGGUGUCAAAUUCGGCGAAACCUAAGCGCCCGCCCGGGCGUAUGGCAACGCUGAGCCAAGCUUCGGCGCCUGCGCCGAUGGAGGUGUAGGGACUAGACGGCACCCACCUAAGGCAAACGCUAUGGUGAAGGCAUAGUCGAGGGAGAGGCGAAAGUCACACAAACCGG [C82U A111G A120G C169G U176A], the reverse-splicing fitness was determined as 0.0186.

In the case of GUGCCUUGCGCCGGGAAACCACGCAAGGGAUGGUGUCAAAUUCGGCGAAACCUAAGCGCCCGCCCGGGCGUAUGGCAACGCUGAGCCAAGCUUCGGCGCCUGCGCCGAUGGAGGUGUAGGGACUAGACGGCACCCACCUAAGGCAAACGUUAUGGUGAAGGCAUAGUCUAGGGAGUGGCGAAAGUCACACAAACCGG [C82U A111G A120G C150U C169U], the reverse-splicing fitness was determined as 0.00996. The value for GUGCCUUGCGCCGGGAAACCACGCAAGGGAUGGUGUCAAAUUCGGCGAAACCUAAGCGCCCGCCCGGGCGUAUGGCAACGCUGAGCCAAGCUUCGGCGCCUGCGCCGAUGGAGGUGUAGGGACUAGACGGCACCCACCUAAGGCAAACGCUAUGGUGAAGGCAUAGUCAAGGGAGUGGCGAAAGUCACACAAACCGG [C82U A111G A120G C169A] was 0.0106; that for GUGCCUUGCGCCGGGAAACCACGCAAGGGAUGGUGUCAAAUUCGGCGAAACCUAAGCGCCCGCCCGGGCGUAUGGCAACGCUGAGCCAAGCUUCGGCGCCUGCGCCGAUGGAGGUGUAGGGACUAGACGGCACCCACCUAAGGCAAACGCUAUGGUGAAGGCAUAGUCGAGGGAGUGGCGAAAGUCACACAAACCGG [C82U A111G A120G C169G] was 0.0125. The value for GUGCCUUGCGCCGGGAAACCACGCAAGGGAUGGUGUCAAAUUCGGCGAAACCUAAGCGCCCGCCCGGGCGUAUGGCAACGCUGAGCCAAGCUUCGGCGCCUGCGCCGAUGGAGGUGUAGGGACUAGACGGCACCCACCUAAGGCAAACGUUAUGGUGAAGGCAUAGUCGAGGGAGCGGCGAAAGUCACACAAACCGG [C82U A111G A120G C150U C169G U176C] was 0.0174. With GUGCCUUGCGCCGGGAAACCACGCAAGGGAUGGUGUCAAAUUCGGCGAAACCUAAGCGCCCGCCCGGGCGUAUGGCAACGCUGAGCCAAGCUUCGGCGCCUGCGCCGAUGGAGGUGUAGGGACUAGACGGCACCCACCUAAGGCAAACGUUAUGGUGAAGGCAUAGUCGAGGGAGGGGCGAAAGUCACACAAACCGG [C82U A111G A120G C150U C169G U176G] the figure was 0.00447. Take GUGCCUUGCGCCGGGAAACCACGCAAGGGAUGGUGUCAAAUUCGGCGAAACCUAAGCGCCCGCCCGGGCGUAUGGCAACGCUGAGCCAAGCUUCGGCGCCUGCGCCGAUGGAGGUGUAGGGACUAGACGGCACCCACCUAAGGCAAACGCUAUGGUGAAGGCAUAGUCAAGGGAGAGGCGAAAGUCACACAAACCGG [C82U A111G A120G C169A U176A]: the reverse-splicing fitness came to 0.0167. With GUGCCUUGCGCCGGGAAACCACGCAAGGGAUGGUGUCAAAUUCGGCGAAACCUAAGCGCCCGCCCGGGCGUAUGGCAACGCUGAGCCAAGCUUCGGCGCCUGCGCCGAUGGAGGUGUAGGGACUAGACGGCACCCACCUAAGGCAAACGCUAUGGUGAAGGCAUAGUCAAGGGAGCGGCGAAAGUCACACAAACCGG [C82U A111G A120G C169A U176C] the figure was 0.023; with GUGCCUUGCGCCGGGAAACCACGCAAGGGAUGGUGUCAAAUUCGGCGAAACCUAAGCGCCCGCCCGGGCGUAUGGCAACGCUGAGCCAAGCUUCGGCGCCUGCGCCGAUGGAGGUGUAGGGACUAGACGGCACCCACCUAAGGCAAACGCUAUGGUGAAGGCAUAGUCAAGGGAGGGGCGAAAGUCACACAAACCGG [C82U A111G A120G C169A U176G], 0.00398; with GUGCCUUGCGCCGGGAAACCACGCAAGGGAUGGUGUCAAAUUCGGCGAAACCUAAGCGCCCGCCCGGGCGUAUGGCAACGCUGAGCCAAGCUUCGGCGCCUGCGCCGAUGGAGGUGUAGGGACUAGACGGCACCCACCUAAGGCAAACGUUAUGGUGAAGGCAUAGUCCAGGGAGCGGCGAAAGUCACACAAACCGG [C82U A111G A120G C150U U176C], 0.0156.

On to GUGCCUUGCGCCGGGAAACCACGCAAGGGAUGGUGUCAAAUUCGGCGAAACCUAAGCGCCCGCCCGGGCGUAUGGCAACGCUGAGCCAAGCUUCGGCGCCUGCGCCGAUGGAGGUGUAGGGACUAGACGGCACCCACCUAAGGCAAACGUUAUGGUGAAGGCAUAGUCCAGGGAGAGGCGAAAGUCACACAAACCGG [C82U A111G A120G C150U U176A], for which the reverse-splicing fitness was 0.00985. The value for GUGCCUUGCGCCGGGAAACCACGCAAGGGAUGGUGUCAAAUUCGGCGAAACCUAAGCGCCCGCCCGGGCGUAUGGCAACGCUGAGCCAAGCUUCGGCGCCUGCGCCGAUGGAGGUGUAGGGACUAGACGGCACCCACCUAAGGCAAACGUUAUGGUGAAGGCAUAGUCCAGGGAGGGGCGAAAGUCACACAAACCGG [C82U A111G A120G C150U U176G] was 0.00506. Regarding GUGCCUUGCGCCGGGAAACCACGCAAGGGAUGGUGUCAAAUUCGGCGAAACCUAAGCGCCCGCCCGGGCGUAUGGCAACGCUGAGCCAAGCUUCGGCGCCUGCGCCGAUGGAGGUGUAGGGACUAGACGGCACCCACCUAAGGCAAACGUUAUGGUGAAGGCAUAGUCUAGGGAGGGGCGAAAGUCACACAAACCGG [C82U A111G A120G C150U C169U U176G], the reverse-splicing fitness turned out to be 0.00611.

On to GUGCCUUGCGCCGGGAAACCACGCAAGGGAUGGUGUCAAAUUCGGCGAAACCUAAGCGCCCGCCCGGGCGUAUGGCAACGCUGAGCCAAGCUUCGGCGCCUGCGCCGAUGGAGGUGUAGGGACUAGACGGCACCCACCUAAGGCAAACGUUAUGGUGAAGGCAUAGUCUAGGGAGAGGCGAAAGUCACACAAACCGG [C82U A111G A120G C150U C169U U176A], for which the reverse-splicing fitness came out at 0.0221. With GUGCCUUGCGCCGGGAAACCACGCAAGGGAUGGUGUCAAAUUCGGCGAAACCUAAGCGCCCGCCCGGGCGUAUGGCAACGCUGAGCCAAGCUUCGGCGCCUGCGCCGAUGGAGGUGUAGGGACUAGACGGCACCCACCUAAGGCAAACGUUAUGGUGAAGGCAUAGUCUAGGGAGCGGCGAAAGUCACACAAACCGG [C82U A111G A120G C150U C169U U176C], the reverse-splicing fitness is 0.015.
